# According to patent US20260184766A1:
# B1: SKD chimeric bovine-human IgG1 (ultralong CDR3) (antibody)
# VH: QVQLRESGPSLVKPSQTLSLTCTASGFSLSDKAVGWVRQAPGKALEWLGSIDTGGNTGYNPGLKSRLSITKDNSKSQVSLSVSSVTTEDSATYYCTTVHQRTSEKRSCPGGSSRRYPSGASCDVSGGACACYVSNCRGVLCPTLNEIVAYTYEWHVDAWGQGLLVTVSS
# VL: QAVLNQPSSVSGSLGQRVSITCSGSSSNVGNGYVSWYQLIPGSAPRTLIYGDTSRASGVPDRFSGSRSGNTATLTISSLQAEDEADYFCASAEDSSSNAVFGSGTTLTVL
# B2: R4C1 chimeric bovine-human IgG1 (ultralong CDR3) (antibody)
# VH: QVQLRESGPSLVKPSQTLSLTCTASGFSLSDKAVGWVRQAPGKPLEWLGSIDTAENTGYNPGLKSRLSITKDNSKSQVSLSVSSVTTEDSATYYCATVHQKTRKEKNCPDGYIYSSNTASGYDCGVWICRRVGSAFCSRTGDYTSPSEFDIYEFYVEGWGQGLLVTVSS
# VL: B1 VL
# B3: R2D9 chimeric bovine-human IgG1 (ultralong CDR3) (antibody)
# VH: QVQLRESGPSLVKPSQTLSLTCTASGFSLSDKAIGWVRQAPGKALEWLGSIDTRGNTGYNPGLKSRLSITKDSSKSQVSLSVNSVTTEDSATYLCAIVQQITHKTCPNGYNWFDRCCSWDGTCGDGCCSNRAWPSGNGRADSSIGETYGYEFHVAAWGQGLLVTVSS
# VL: B1 VL
# B4: SKM chimeric bovine-human IgG1 (ultralong CDR3) (antibody)
# VH: QVQLRESGPSLVKPSQTLSLTCTASGFSLSDKAVGWVRQAPGKALEWLGSIDTGGNTGYNPGLKSRLSITKDNSKSQVSLSVSSVTTEDSATYYCTTVHQETLRSCPDGYIDNSGCTADWGCAALDCWRRRFGYHSTDPSHYTGATYIYTYSLHIDAWGQGLLVTVSS
# VL: B1 VL
# Legend:
# [1] = molecular target: SARS-CoV-2 S variant 484K carried by pseudotyped virus (SARS-CoV-2), P0DTC2; assay: cell-based or functional assay
# [2] = molecular target: SARS-CoV-2 S variant K417N/E484K/N501Y (B.1.351, SA variant; beta lineage) carried by pseudotyped virus (SARS-CoV-2 B.1.351), P0DTC2; assay: cell-based or functional assay
# [3] = molecular target: SARS CoV-2 omicron variant recombinant stabilized spike trimer (SARS-CoV-2 omicron variant)
# [4] = molecular target: SARS CoV-2 omicron variant spike RBD (SARS-CoV-2 omicron variant); assay: ELISA on omicron variant RBD (panel RBD), OD450
Binder,"EC50 (pM), pseudovirus luciferase assay [1] [pM]","EC50 (pM), pseudovirus luciferase assay [2] [pM]",Neutralization of Pseudovirus (ng/mL; parameter not named) [2] [ng/mL],EC50 (read off the curve) [3] [nM],EC50 (read off the curve) [4] [nM]
B1,> 1000,> 1000,> 1000,–,–
B2,–,–,375,–,–
B3,–,–,–,0.4,0.4
B4,> 1000,> 1000,> 1000,–,–
